Experimental data reported in US20230398116A1, “Agent for reversing resistance to anticancer drugs” (Y'S AC CO., LTD., priority 2020, published 2023).

Tested on: phosphorylation of AKT, JNK and EphA3 in HCC70 cells
Experiment: Western blotting of phosphorylation in HCC70 cells
Type: cell-based, human
Conditions: HCC70, IL-26 30 ng/ml or Ephrin A5 200 ng/ml, gefitinib 40 μM, FIG. 26
Procedure: To analyze the phosphorylation of AKT, ERK, p38, JNK, STAT3, and EphA3, E0771 cells and HCC70 cells in 100 mm dishes were stimulated with IL-26 ([…]) and an anti-EphA3 polyclonal antibody (pAb) (10 μg/ml) for a specified period of time. After stimulation, the cells were lysed with a 2% protease inhibitor mixture (Sigma-Aldrich) and/or RIPA buffer added with 1×PhosSTOP (Roche Diagnostics, Tokyo, Japan), and a lysate was separated in a reduced state by SDS-PAGE (15 μg/lane). Immunoblots were performed using an anti-phosphorylated AKT antibody, an anti-phosphorylated ERK antibody, an anti-phosphorylated p38 antibody, an anti-phosphorylated JNK antibody, an anti-phosphorylated STAT3 antibody, and an anti-phosphorylated EphA3 antibody that recognize both human and mouse antigens. For reprobing, the membrane was immersed in a stripping buffer. After the stripping procedure, the membranes were re-probed with anti-pan-AKT, anti-pan-ERK, anti-pan-p38, anti-pan-JNK, anti-pan-STAT3, and anti-pan-EphA3 antibodies recognizing both human and mouse antigens. Images were taken using a C-Digit Blot scanner (MS Techno Systems, Inc., Japan).

B1: IL-26: recombinant human IL-26 dimers for cell stimulation, R&D Systems (protein)
chain: KHKQSSFTKSCYPRGTLSQAVDALYIKAAWLKATIPEDRIKNIRLLKKKTKKQFMKNCQFQEQLLSFFMEDVFGQLQLQGCKKIRFVEDFHSLRQKLSHCISCASSAREMKSITRMKRIFYRIGNKGIYKAISELDILLSWIKKLLESSQ
dephosphorylation of EphA3, activation of AKT and JNK phosphorylation: dephosphorylation of EphA3, activation of AKT and JNK phosphorylation
